B1: Bap31 coiled-coil 2 (Bap31_CC2, residues 168−246) (domain or fragment, human, UniProt P51572 168-246, looked up)
chain: LDVGNAEVKLEEENRSLKADLQKLKDELASTKQKLEKAENQVLAMRKQSEGLTKEYDRLLEEHAKLQAAVDGPMDKKEE
notes: B-cell receptor-associated protein 31 (Bap31), human, coiled-coil 2, residues 168-246; source: E. coli Rosetta2(DE3), purified (Ni-NTA, SEC)
B2: Bap31 coiled-coil 2 (Bap31_CC2, residues 168−246) WT (domain or fragment, human, UniProt P51572 168-246, looked up)
chain: B1 chain
notes: B-cell receptor-associated protein 31 (Bap31), human, coiled-coil 2, residues 168-246; also called Bap31_CC2 WT; Bap31_WT; source: E. coli Rosetta2(DE3), purified (Ni-NTA, SEC)
B3: Bap31_vDED (residues 168−233 + SAAA) (domain or fragment, human)
chain: LDVGNAEVKLEEENRSLKADLQKLKDELASTKQKLEKAENQVLAMRKQSEGLTKEYDRLLEEHAKLSAAA
notes: B-cell receptor-associated protein 31 (Bap31), human, variant of the death effector domain, residues 168-233; also called Bap31_vDED+SAAA; Bap31_168-233+SAAA; source: E. coli Rosetta2(DE3), purified (Ni-NTA, SEC)

Columns and labels:
[1] = target: the molecule itself; experiment: AUC; sedimentation velocity, 42,000 rpm, 20 °C, 20 mM Tris-HCl pH 7.5, 150 mM NaCl, 0.5 mM TCEP; c(s) distribution (SEDFIT); oligomeric state of the protein alone
[2] = target: T1, cytosolic domain of human Fis1 (Fis1_ΔTM, residues 1−123) (human, UniProt Q9Y3D6 1-123); experiment: SPR; Fis1_ΔTM WT or mutants immobilised by amine coupling; Bap31 constructs flowed at 30 μl/min; 25 °C; 20 mM HEPES pH 7.5, 100 mM NaCl, 0.005% Tween 20; BSA reference subtracted; equilibrium analysis; details: both partners purified
T1 construct: mitochondrial fission protein 1 (Fis1), human, cytosolic domain with the C-terminal TM region truncated, residues 1-123; pQlinkH vector: N-terminal polyhistidine tag followed by a TEV site; also called Fis1_ΔTM WT; Fis1_WT; source: E. coli Rosetta2(DE3), purified (Ni-NTA, SEC)
T1 sequence (Q9Y3D6 1-123, stated change not applied): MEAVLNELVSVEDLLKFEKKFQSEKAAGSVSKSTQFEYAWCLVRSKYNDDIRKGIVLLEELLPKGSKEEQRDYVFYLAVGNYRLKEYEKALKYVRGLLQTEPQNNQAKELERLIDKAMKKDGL

Row | Binder | stoichiometry N [1] | Kd [2]
1 | B1 | ~2 | 
2 | B2 |  | 58 µM
3 | B3 | ~2 | 
